In US20240247080A1, “GLP1/GIP/NPY2 RECEPTOR TRIPLE AGONISTS” (Boehringer Ingelheim International GmbH, priority 2022, published 2024):
Positions count from the first letter of the chain named. One block for each binder: values may come before it. Starred links: 1 amine or outer side, 2 acyl side, 3 side chain; linkers in the order of their positions; H or OH if unused. Non-standard residues stand in square brackets, D forms with d. Groups on a side chain read outwards from the residue. No end group written: not given here. *: point of attachment. C20 diacid = O=C(O)CCCCCCCCCCCCCCCCCCC(=O)*; C18 diacid = O=C(O)CCCCCCCCCCCCCCCCC(=O)*; γGlu = O=C(O)[C@H](CCC(=O)[*:2])N[*:1]; εLys = N[C@@H](CCCCN[*:1])C(=O)[*:2]; AEEA = NCCOCCOCC(=O)O; Aib = CC(C)(N)C(=O)O

Key:
Assay in all cases: cell-based or functional assay
[1] = target: T1, human neuropeptide Y2 receptor (human, UniProt P49146 1-381)
T1 sequence (looked up): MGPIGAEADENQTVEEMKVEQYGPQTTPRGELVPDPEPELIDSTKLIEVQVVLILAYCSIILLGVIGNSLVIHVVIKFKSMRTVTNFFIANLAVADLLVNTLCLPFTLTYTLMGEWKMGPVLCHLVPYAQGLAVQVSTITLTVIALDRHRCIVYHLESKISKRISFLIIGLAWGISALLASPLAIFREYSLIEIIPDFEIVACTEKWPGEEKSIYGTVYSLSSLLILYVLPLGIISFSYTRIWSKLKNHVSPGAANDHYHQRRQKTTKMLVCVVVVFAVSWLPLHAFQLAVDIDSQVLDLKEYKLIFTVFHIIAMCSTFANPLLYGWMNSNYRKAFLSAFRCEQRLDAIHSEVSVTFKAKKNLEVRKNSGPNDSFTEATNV

[2] = target: T2, human GIP receptor (human, UniProt P48546 22-466)
T2 sequence (looked up): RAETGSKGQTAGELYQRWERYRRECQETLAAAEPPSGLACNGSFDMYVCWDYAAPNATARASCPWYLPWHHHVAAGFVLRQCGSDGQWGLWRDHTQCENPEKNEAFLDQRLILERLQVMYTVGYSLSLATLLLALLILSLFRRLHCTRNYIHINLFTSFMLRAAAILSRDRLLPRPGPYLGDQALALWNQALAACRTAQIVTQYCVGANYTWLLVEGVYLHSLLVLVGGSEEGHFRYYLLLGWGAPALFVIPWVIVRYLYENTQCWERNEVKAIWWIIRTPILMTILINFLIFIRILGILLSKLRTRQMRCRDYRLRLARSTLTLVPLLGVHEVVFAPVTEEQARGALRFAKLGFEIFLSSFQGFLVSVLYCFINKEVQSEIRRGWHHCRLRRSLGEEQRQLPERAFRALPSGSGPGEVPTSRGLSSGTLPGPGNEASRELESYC

[3] = target: human GLP-1 receptor (human, UniProt P43220 24-463)
[4] = target: T3, GIP receptor (human (printed as hGIPR), UniProt P48546 22-466)
T3 sequence (looked up): T2 sequence (looked up)

[5] = target: T4, NPY2 receptor (human (printed as hNPY2R), UniProt P49146 1-381)
T4 sequence (looked up): T1 sequence (looked up)

[6] = target: GLP-1 receptor (human (printed as hGLP1R), UniProt P43220 24-463)

B1: Compound 164 (peptide)
peptide: Y[Aib]EGTFTSDYSI[Aib]LEKQAQ[Aib]EFVQWLIKGGPSEGASLRHYYNWLTRQRY-NH2
modifications: not fully specified (residue 28)
EC50 CreLuc hNPY2R 0.5% hP [1]: 24 nM
EC50 CreLuc hNPY2R 100% hP [1]: 50.1 nM
EC50 CreLuc hGIPR 0.5% hP [2]: 0.25 nM
EC50 CreLuc hGIPR 100% hP [2]: 1.26 nM
EC50 CreLuc hGLP1R 0.5% hP [3]: 0.28 nM
EC50 CreLuc hGLP1R 100% hP [3]: 6.48 nM

B2: Compound 173 (peptide)
peptide: Y[Aib]EGTFTSDYSI[Aib]LEKQAQ[Aib]AFVQWLIK([AEEA-AEEA-γGlu-γGlu-γGlu-γGlu-C18 diacid])GGPSEPASLRHYYNWLTRQRY-NH2
modifications: also: TFA salt
EC50 hGIPR 0.5% hP (CreLuc) [4]: 0.27 nM
EC50 hGIPR 100% hP (CreLuc) [4]: 0.94 nM
EC50 hNPY2R 0.5% hP (CreLuc) [5]: 12.4 nM
EC50 hNPY2R 100% hP (CreLuc) [5]: 24.9 nM
EC50 hGLP1R 0.5% hP (CreLuc) [6]: 0.11 nM
EC50 hGLP1R 100% hP (CreLuc) [6]: 3.07 nM

B3: Compound 159 (peptide)
peptide: Y[Aib]EGTFTSDYSI[Aib]LEKQAQ[Aib]EFVEWLIK([εLys-γGlu-γGlu-γGlu-γGlu-γGlu-C18 diacid])GGPSSGASLRHYYNWLTRQRY-NH2
EC50 CreLuc hNPY2R 0.5% hP [1]: 13.8 nM
EC50 CreLuc hNPY2R 100% hP [1]: 34.6 nM
EC50 CreLuc hGIPR 0.5% hP [2]: 0.35 nM
EC50 CreLuc hGIPR 100% hP [2]: 0.91 nM
EC50 CreLuc hGLP1R 0.5% hP [3]: 0.19 nM
EC50 CreLuc hGLP1R 100% hP [3]: 5.17 nM

B4: Compound 158 (peptide)
peptide: Y[Aib]EGTFTSDYSI[Aib]LEKQAQ[Aib]AFVEWLIK([AEEA-AEEA-γGlu-γGlu-γGlu-γGlu-C18 diacid])GGPSSPASLRHYYNWLTRQRY-NH2
EC50 CreLuc hNPY2R 0.5% hP [1]: 15.8 nM
EC50 CreLuc hNPY2R 100% hP [1]: 39.9 nM
EC50 CreLuc hGIPR 0.5% hP [2]: 0.11 nM
EC50 CreLuc hGIPR 100% hP [2]: 0.84 nM
EC50 CreLuc hGLP1R 0.5% hP [3]: 0.09 nM
EC50 CreLuc hGLP1R 100% hP [3]: 3.25 nM

B6: Compound 175 (peptide)
peptide: Y[Aib]EGTFTSDYSI[Aib]LEKQAQ[Aib]AFVEWLIK([AEEA-AEEA-γGlu-γGlu-γGlu-γGlu-C20 diacid])GGPSSPASLRHYYNWLTRQRY-NH2
modifications: also: TFA salt
EC50 hGIPR 0.5% hP (CreLuc) [4]: 0.29 nM
EC50 hGIPR 100% hP (CreLuc) [4]: 1.53 nM
EC50 hNPY2R 0.5% hP (CreLuc) [5]: 10.5 nM
EC50 hNPY2R 100% hP (CreLuc) [5]: 48.7 nM
EC50 hGLP1R 0.5% hP (CreLuc) [6]: 0.1 nM
EC50 hGLP1R 100% hP (CreLuc) [6]: 5.3 nM

B8: Compound 176 (peptide)
peptide: YXEGTFTSDYSIXLEKQAQXEFVQWLIKGGPSEGASLRHYYNWLTRQRY
modifications: Aib at 2, 13, 20; K28 side chain carries C18DA-E-E-E-E-E (SEQ ID NO: 636); C-terminal amide
EC50 hGIPR 0.5% hP (CreLuc) [4]: 0.68 nM
EC50 hGIPR 100% hP (CreLuc) [4]: 3.37 nM
EC50 hNPY2R 0.5% hP (CreLuc) [5]: 30.4 nM
EC50 hNPY2R 100% hP (CreLuc) [5]: 197 nM
EC50 hGLP1R 0.5% hP (CreLuc) [6]: 0.29 nM
EC50 hGLP1R 100% hP (CreLuc) [6]: 9.56 nM

Further lines, results first:

EC50 hGIPR 0.5% hP (CreLuc) [4]: 0.28 nM
EC50 hGIPR 100% hP (CreLuc) [4]: 2.83 nM
EC50 hNPY2R 0.5% hP (CreLuc) [5]: 18.7 nM
EC50 hNPY2R 100% hP (CreLuc) [5]: 115 nM
EC50 hGLP1R 0.5% hP (CreLuc) [6]: 0.16 nM
EC50 hGLP1R 100% hP (CreLuc) [6]: 12.5 nM
B5: Compound 177 (peptide)
peptide: Y[Aib]EGTFTSDYSI[Aib]LEKQAQ[Aib]AFVQWLIK([AEEA-AEEA-Glu-Glu-Glu-Glu-C18 diacid])GGPEEGASLRHYYNWLTRQRY-NH2
modifications: also: TFA salt

EC50 hGIPR 0.5% hP (CreLuc) [4]: 0.38 nM
EC50 hGIPR 100% hP (CreLuc) [4]: 3.34 nM
EC50 hNPY2R 0.5% hP (CreLuc) [5]: 18.5 nM
EC50 hNPY2R 100% hP (CreLuc) [5]: 111 nM
EC50 hGLP1R 0.5% hP (CreLuc) [6]: 0.22 nM
EC50 hGLP1R 100% hP (CreLuc) [6]: 10.5 nM
B7: Compound 179 (peptide)
peptide: Y[Aib]EGTFTSDYSI[Aib]LEKQAQ[Aib]EFVQWLIK([Glu-Glu-Glu-Glu-Glu-Glu-C18 diacid])GGPSEGASLRHYYNWLTRQRY-NH2
modifications: also: TFA salt

EC50 hGIPR 0.5% hP (CreLuc) [4]: 0.2 nM
EC50 hGIPR 100% hP (CreLuc) [4]: 3.88 nM
EC50 hNPY2R 0.5% hP (CreLuc) [5]: 19.6 nM
EC50 hNPY2R 100% hP (CreLuc) [5]: 107 nM
EC50 hGLP1R 0.5% hP (CreLuc) [6]: 0.1 nM
EC50 hGLP1R 100% hP (CreLuc) [6]: 3.61 nM
B9: Compound 180 (peptide)
peptide: B8 peptide with E21A, Q24E, E33S, G34P
modifications: Aib at 2, 13, 20; K28 side chain carries C18DA-gGlu-gGlu-gGlu-gGlu-gGlu; C-terminal amide
